Assay results published in patent publication US20250282880A1 (NUMAB THERAPEUTICS, published 2025).
Residue numbers refer to the chain shown, from its start. Names may count otherwise. Values belong to the binder of their own block, whether it stands above or below them.

Key:
IL-4R on HEK-Blue cells [1] = target: T1, IL-4R on HEK-Blue cells (human, UniProt P24394 26-825); experiment: cell-based or functional assay
IL-4R on HEK-Blue cells [2] = target: T1, IL-4R on HEK-Blue cells; experiment: cell-based or functional assay; remark: listed apart in the source
[3] = target: T2, recombinant cynomolgus monkey IL-4R (ECD with His-tag, Acro Biosystems) (cynomolgus monkey, UniProt A0A2K5V556 26-232); experiment: SPR (Biacore T200), Morrison antibody captured via anti-human IgG-Fc, cynomolgus IL-4R ECD-His as analyte, 1:1 model
T2 construct: analyte in the SPR of the Morrison-H antibodies; also called cynomolgus IL-4R
Method: (§1) In this SPR experiment, Morrison molecules were captured via an anti-human IgG-Fc antibody (Human Antibody Capture Kit; Biacore, Cytiva) covalently immobilized to a carboxylmethylated dextran surface (CM5 sensorchip; Biacore, Cytiva) and a titration series of human IL-4R ECD was injected as analyte. After each analyte injection cycle, the sensor chip was regenerated (MgCl₂), and new Morrison antibody was subsequently re-captured. […] The apparent dissociation (kd) and association (kₐ) rate constants and the apparent dissociation equilibrium constant (KD) were calculated with the Biacore analysis software (Biacore Evaluation software Version 3.2, Cytiva) using one-to-one Langmuir binding model and quality of the fits was monitored based on Chi2 and U-value, which are measures for the quality of the curve fitting. The binding level was calculated as the maximum stability binding achieved normalized to the theoretical Rmax. Cross-reactivity to cynomolgus monkey IL-4R was measured using the same setup as for the analysis of human IL-4R kinetics, with the difference that recombinant cynomolgus monkey IL-4R (ECD with His-tag, Acro Biosystems) protein was used as analyte instead of human IL-4R.

[4] = target: T3, recombinant human IL-4R protein (ECD with His Tag, Sino Biological) (human, UniProt P24394 26-232); experiment: SPR (Biacore T200), Morrison antibody captured via anti-human IgG-Fc, human IL-4R ECD-His as analyte 0.175 to 45 nM, 1:1 model
T3 construct: extracellular domain; analyte in the SPR of the Morrison-H antibodies; also called human IL-4R ECD; not shown: His tag
Method: as §1

- Mean IC50, neutralization of human IL-4-induced signaling in the stat-6 reporter gene assay (IL-4R on HEK-Blue cells [1]): 23.9 pM
- Mean rel. IC50 [IC50 dupilumab/IC50 sample], human IL-4-induced signaling (IL-4R on HEK-Blue cells [1]): 0.42 ratio
- Retained IC50 with and without IL-31 excess (n = 1) [IC50, no IL-31/IC50, with IL-31] (IL-4R on HEK-Blue cells [1]): 0.71 ratio
- Mean IC50, neutralization of human IL-13 induced signaling in the stat-6 reporter gene assay (IL-4R on HEK-Blue cells [2]): 22.1 pM
- Mean rel. IC50 [IC50 dupilumab/IC50 sample], human IL-13 induced signaling (IL-4R on HEK-Blue cells [2]): 0.42 ratio
- Kd [3]: 144 pM
- koff [3]: 4.9e-05 s⁻¹
- kon [3]: 370000 M⁻¹ s⁻¹
- Kd [4]: 291 pM
- koff [4]: 0.000101 s⁻¹
- kon [4]: 352000 M⁻¹ s⁻¹
B1: PRO2198 (bispecific antibody, human IgG4 S228P, kappa)
light: DIQMTQSPSSLSARVGDRVTITCQASEDIESYLAWYQQKPGKAPKLLIYRASTLAYGVPSRFSGSGSGRDFTLTISSLQPEDFATYYCLGSSYSTGSNIFGQGTKVEIKRTVAAPSVFIFPPSDEQLKSGTASVVCLLNNFYPREAKVQWKVDNALQSGNSQESVTEQDSKDSTYSLSSTLTLSKADYEKHKVYACEVTHQGLSSPVTKSFNRGEC
heavy: not shown
notes: IgG4 (S228P) Morrison-H, IgG4-(scFv)2: Fab arms 44-34-C10-sc08 (anti-IL-4R), anti-IL-31 scFv 50-09-D07-sc04 fused to the C-terminus of the heavy chain; also called Morrison-H antibody PRO2198; anti-IL-4RxIL-31 bispecific antibody

- Mean IC50, neutralization of human IL-4-induced signaling in the stat-6 reporter gene assay (IL-4R on HEK-Blue cells [1]): 11.5 pM
- Mean rel. IC50 [IC50 dupilumab/IC50 sample], human IL-4-induced signaling (IL-4R on HEK-Blue cells [1]): 0.72 ratio
- Retained IC50 with and without IL-31 excess (n = 1) [IC50, no IL-31/IC50, with IL-31] (IL-4R on HEK-Blue cells [1]): 1.25 ratio
- Mean IC50, neutralization of human IL-13 induced signaling in the stat-6 reporter gene assay (single analysis) (IL-4R on HEK-Blue cells [2]): 11.3 pM
- Mean rel. IC50 [IC50 dupilumab/IC50 sample], human IL-13 induced signaling (single analysis) (IL-4R on HEK-Blue cells [2]): 0.69 ratio
- Kd [3]: 35.1 pM
- koff [3]: 3.44e-05 s⁻¹
- kon [3]: 980000 M⁻¹ s⁻¹
- Kd [4]: 197 pM
- koff [4]: 5.76e-05 s⁻¹
- kon [4]: 293000 M⁻¹ s⁻¹
B2: PRO2199 (bispecific antibody, human IgG4 S228P, kappa)
light: B1 light with R14S, R69T
heavy: not shown
notes: IgG4 (S228P) Morrison-H, IgG4-(scFv)2: Fab arms 44-34-C10-sc09 (anti-IL-4R), anti-IL-31 scFv 50-09-D07-sc04 fused to the C-terminus of the heavy chain; also called Morrison-H antibody PRO2199; anti-IL-4RxIL-31 bispecific antibody
